According to US20240066061A1:

Molecular target: chemokine receptor CXCR3 (human) (UniProt P49682)
Assay: cell-based or functional assay

Sequence of UniProt P49682 (P49682 whole entry): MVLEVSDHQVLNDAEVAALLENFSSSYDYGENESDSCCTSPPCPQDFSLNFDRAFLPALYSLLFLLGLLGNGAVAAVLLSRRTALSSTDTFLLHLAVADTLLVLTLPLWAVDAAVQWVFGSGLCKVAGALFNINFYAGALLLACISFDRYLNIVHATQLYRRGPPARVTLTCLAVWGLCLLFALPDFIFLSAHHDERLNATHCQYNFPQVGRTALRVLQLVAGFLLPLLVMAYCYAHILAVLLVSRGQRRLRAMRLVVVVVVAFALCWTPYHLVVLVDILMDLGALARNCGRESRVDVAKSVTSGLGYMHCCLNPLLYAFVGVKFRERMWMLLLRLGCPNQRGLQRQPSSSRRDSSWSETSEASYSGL

Molecule “CXCL10 (from UniProt P02778 22-98) (ligand)” has a chemokine concentration at maximum cell migration of CD8+ TSCM of 100 ng/mL and a chemotactic index, in-vitro transwell migration of human T cells of 2.

B1: CXCL11 (ligand, UniProt O14625 22-94, looked up)
chain: FPMFKRGRCLCIGPGVKAVKVADIEKASIMYPSNNCDKIEVIITLKENKGQRCLNPKSKQARLIIKKVERKNF
In the case of B1, the chemokine concentration at maximum cell migration of CD8+ TSCM is reported as 100 ng/mL, the chemotactic index, in-vitro transwell migration of human T cells is reported as 2 and the fold enrichment of CXCR3+ cells after 21 days stimulation with CMV epitopes and CXCL11 is reported as 10000 fold.

B2: CXCL9 (ligand, UniProt Q07325 23-125, looked up)
chain: TPVVRKGRCSCISTNQGTIHLQSLKDLKQFAPSPSCEKIEIIATLKNGVQTCLNPDSADVKELIKKWEKQVSQKKKQKNGKKHQKKKVLKVRKSQRSRQKKTT
Work on B2 yielded a chemokine concentration at maximum cell migration of CD8+ TSCM of 100 ng/mL and a chemotactic index, in-vitro transwell migration of human T cells of 2.
